To fix the notation:
B1: target 1 MT 5'PFS CUA 3'PFS UCG (mixed)
RNA 1: CACCCGUGCAAAAAUGCAGGGGUCUAAAACUGAGCGGAUAACCUCUCUAUGG
RNA 2: GGGAAUGGAUCCACAUCUACGAAUUCCUACCAUAGAGAGGUUAUCCGCUCAUCGAGAUCGGAAGAGCACACGU
B2: target 1 MT 5'PFS AGG 3'PFS AAA (mixed)
RNA 1: B1 RNA 1
RNA 2: B1 RNA 2 with C27A, U28G, A29G, U52A, C53A, G54A
B3: target 1 MT 5'PFS AAG 3'PFS ACU (mixed)
RNA 1: B1 RNA 1
RNA 2: B1 RNA 2 with C27A, U28A, A29G, U52A, G54U
B4: target 1 MT 5'PFS AAA 3'PFS AAC (mixed)
RNA 1: B1 RNA 1
RNA 2: B1 RNA 2 with C27A, U28A, U52A, C53A, G54C
B5: target 1 MT 5'PFS CAG 3'PFS AAA (mixed)
RNA 1: B1 RNA 1
RNA 2: B1 RNA 2 with U28A, A29G, U52A, C53A, G54A
B6: target 1 MT 5'PFS AAA 3'PFS AAG (mixed)
RNA 1: B1 RNA 1
RNA 2: B1 RNA 2 with C27A, U28A, U52A, C53A
B7: target 1 MT 5'PFS AGC 3'PFS AUC (mixed)
RNA 1: B1 RNA 1
RNA 2: B1 RNA 2 with C27A, U28G, A29C, U52A, C53U, G54C
B8: target 1 MT 5'PFS ACC 3'PFS UCC (mixed)
RNA 1: B1 RNA 1
RNA 2: B1 RNA 2 with C27A, U28C, A29C, G54C
B9: target 1 MT 5'PFS AAC 3'PFS UCU (mixed)
RNA 1: B1 RNA 1
RNA 2: B1 RNA 2 with C27A, U28A, A29C, G54U
B10: target 1 A1G,A16U (mixed)
RNA 1: B1 RNA 1
RNA 2: B1 RNA 2 with C27G, A36U, A51G, U52C
B11: target 1 MT 5'PFS AAG 3'PFS ACC (mixed)
RNA 1: B1 RNA 1
RNA 2: B1 RNA 2 with C27A, U28A, A29G, U52A, G54C
B12: target 1 A16U (mixed)
RNA 1: B1 RNA 1
RNA 2: B1 RNA 2 with C27G, A36U, U52C
B13: target 1 MT 5'PFS UCA 3'PFS CAU (mixed)
RNA 1: B1 RNA 1
RNA 2: B1 RNA 2 with C27U, U28C, U52C, C53A, G54U
B14: target 1 MT 5'PFS GGC 3'PFS AGU (mixed)
RNA 1: B1 RNA 1
RNA 2: B1 RNA 2 with C27G, U28G, A29C, U52A, C53G, G54U
B15: target 1 MT 5'PFS CUA 3'PFS UCC (mixed)
RNA 1: B1 RNA 1
RNA 2: B1 RNA 2 with G54C
B16: target 1 MT 5'PFS ACC 3'PFS UCU (mixed)
RNA 1: B1 RNA 1
RNA 2: B1 RNA 2 with C27A, U28C, A29C, G54U
B17: target 1 MT 5'PFS AAA 3'PFS AAA (mixed)
RNA 1: B1 RNA 1
RNA 2: B1 RNA 2 with C27A, U28A, U52A, C53A, G54A
B18: target 1 MT 5'PFS ACC 3'PFS UCG (mixed)
RNA 1: B1 RNA 1
RNA 2: B1 RNA 2 with C27A, U28C, A29C
B19: target 1 MT 5'PFS GGC 3'PFS AGG (mixed)
RNA 1: B1 RNA 1
RNA 2: B1 RNA 2 with C27G, U28G, A29C, U52A, C53G
B20: target 1 MT 5'PFS GAC 3'PFS AUC (mixed)
RNA 1: B1 RNA 1
RNA 2: B1 RNA 2 with C27G, U28A, A29C, U52A, C53U, G54C
B21: target 1 MT 5'PFS AUG 3'PFS UCU (mixed)
RNA 1: B1 RNA 1
RNA 2: B1 RNA 2 with C27A, A29G, G54U
B22: target 1 MT 5'PFS AGG 3'PFS AAU (mixed)
RNA 1: B1 RNA 1
RNA 2: B1 RNA 2 with C27A, U28G, A29G, U52A, C53A, G54U
B23: target 1 MT 5'PFS UGC 3'PFS UGU (mixed)
RNA 1: B1 RNA 1
RNA 2: B1 RNA 2 with C27U, U28G, A29C, C53G, G54U
B24: target 1 U3G,C7A (mixed)
RNA 1: B1 RNA 1
RNA 2: B1 RNA 2 with C27G, C45A, U49G, U52C
B25: target 1 MT 5'PFS GAC 3'PFS AUU (mixed)
RNA 1: B1 RNA 1
RNA 2: B1 RNA 2 with C27G, U28A, A29C, U52A, C53U, G54U
B26: target 1 MT 5'PFS GGC 3'PFS UGC (mixed)
RNA 1: B1 RNA 1
RNA 2: B1 RNA 2 with C27G, U28G, A29C, C53G, G54C
B27: target 1 MT 5'PFS UCA 3'PFS CAC (mixed)
RNA 1: B1 RNA 1
RNA 2: B1 RNA 2 with C27U, U28C, U52C, C53A, G54C
B28: target 1 MT 5'PFS AGG 3'PFS CCG (mixed)
RNA 1: B1 RNA 1
RNA 2: B1 RNA 2 with C27A, U28G, A29G, U52C
B29: target 1 MT 5'PFS UCA 3'PFS CAG (mixed)
RNA 1: B1 RNA 1
RNA 2: B1 RNA 2 with C27U, U28C, U52C, C53A
B30: target 1 MT 5'PFS AAC 3'PFS UCC (mixed)
RNA 1: B1 RNA 1
RNA 2: B1 RNA 2 with C27A, U28A, A29C, G54C
B31: target 1 MT 5'PFS AAG 3'PFS ACA (mixed)
RNA 1: B1 RNA 1
RNA 2: B1 RNA 2 with C27A, U28A, A29G, U52A, G54A
B32: target 1 MT 5'PFS GAC 3'PFS AUA (mixed)
RNA 1: B1 RNA 1
RNA 2: B1 RNA 2 with C27G, U28A, A29C, U52A, C53U, G54A
B33: target 1 MT 5'PFS GAA 3'PFS CGU (mixed)
RNA 1: B1 RNA 1
RNA 2: B1 RNA 2 with C27G, U28A, U52C, C53G, G54U

Substitutions are numbered along the chain they refer to. In names and notes the source's numbering stands.

The target in this series is T1, EsCas13d, nuclease-dead (Eubacterium siraeum, UniProt B0MS50, R295A;H300A;R849A;H854A).
T1 sequence: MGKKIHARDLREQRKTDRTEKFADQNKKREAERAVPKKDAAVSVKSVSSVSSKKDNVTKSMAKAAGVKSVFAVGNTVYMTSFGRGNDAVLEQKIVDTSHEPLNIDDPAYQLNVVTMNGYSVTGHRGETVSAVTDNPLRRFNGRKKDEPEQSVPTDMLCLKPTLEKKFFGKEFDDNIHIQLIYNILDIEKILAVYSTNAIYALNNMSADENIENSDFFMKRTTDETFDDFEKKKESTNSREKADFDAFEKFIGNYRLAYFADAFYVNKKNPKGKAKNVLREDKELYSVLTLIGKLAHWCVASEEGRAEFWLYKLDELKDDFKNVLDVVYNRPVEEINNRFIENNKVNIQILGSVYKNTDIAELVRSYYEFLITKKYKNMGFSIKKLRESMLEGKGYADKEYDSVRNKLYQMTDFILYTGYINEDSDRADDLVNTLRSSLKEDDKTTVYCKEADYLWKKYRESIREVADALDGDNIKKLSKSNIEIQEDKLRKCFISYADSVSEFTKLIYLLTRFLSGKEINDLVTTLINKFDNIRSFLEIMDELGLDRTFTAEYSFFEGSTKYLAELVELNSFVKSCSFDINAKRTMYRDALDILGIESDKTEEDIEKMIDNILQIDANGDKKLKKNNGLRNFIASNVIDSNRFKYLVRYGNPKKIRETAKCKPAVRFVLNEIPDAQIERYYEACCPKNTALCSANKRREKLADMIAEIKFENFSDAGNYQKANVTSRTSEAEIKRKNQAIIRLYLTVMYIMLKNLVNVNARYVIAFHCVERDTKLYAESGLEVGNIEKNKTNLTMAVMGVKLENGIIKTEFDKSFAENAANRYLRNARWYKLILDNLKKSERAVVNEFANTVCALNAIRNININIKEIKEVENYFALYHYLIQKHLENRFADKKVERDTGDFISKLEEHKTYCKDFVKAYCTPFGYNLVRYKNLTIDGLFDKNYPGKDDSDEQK
Put plainly: crRNA (strand 1, pre-loaded); Mg2+; 40 mM Tris-HCl pH 7.5, 150 mM NaCl, 6 mM MgCl2, 1 mM DTT, 0.1% Tween-20, 0.2 mg/ml BSA; 25 C; 10 min per concentration, then washed. Particulars: tags: His6-TwinStrep-SUMO cleaved; N-terminal SNAP kept (SNAP-Surface 488); label: 3' end held by stalled T7 RNA polymerase.
The term Kd denotes the free concentration of one partner at which half of the binding sites on the other are occupied at equilibrium, for simple one-to-one binding. Read a low Kd as higher affinity. Turning to B1, binding was characterised by a dissociation constant (Kd) of 6 ± 0.95 nM.

As to B2, the dissociation constant Kd was around 50 nM.

In turn, B3 registered a dissociation constant (Kd) of 16.5 ± 6 nM.

Molecule B4 had a Kd of 30 ± 12 nM.

For the molecule B5, the Kd is around 51.5 nM.

Molecule B6 had a Kd of 25.5 ± 6.5 nM.

Molecule B7 had a Kd of around 30.5 nM.

B8 displayed a dissociation constant Kd of around 21 nM.

The molecule B9 showed an equilibrium dissociation constant (Kd) of 22.5 ± 6.5 nM.

B10 had a Kd of 45 ± 11 nM.

Consider B11, for which the Kd is around 47.5 nM.

The molecule B12 gave a dissociation constant (Kd) of 58 ± 9 nM.

For the molecule B13, the Kd stood at 14.7 ± 4.85 nM.

B14 showed a Kd of 17.1 ± 2.45 nM.

In turn, B15 returned an equilibrium dissociation constant (Kd) of 16.2 ± 4.8 nM.

As for B16, the Kd came out at 8.2 ± 3.2 nM.

In the case of B17, the equilibrium dissociation constant (Kd) was determined as 33.5 ± 14.5 nM.

Regarding B18, binding was characterised by a dissociation constant (Kd) of 8.5 ± 3.6 nM.

With B19, the Kd is 33.5 ± 5 nM.

Turning to B20, the Kd is around 29 nM.

On to B21, for which the Kd came out at 10.6 ± 1.75 nM.

For B22, the Kd is around 60 nM.

B23: the Kd amounted to 38 ± 13 nM.

Regarding B24, the affinity, expressed as Kd, was 7.19 ± 0.31 nM.

As for B25, the equilibrium dissociation constant (Kd) turned out to be 21.4 ± 4.45 nM.

The molecule B26 yielded a dissociation constant Kd of 8.6 ± 1.35 nM.

On to B27, for which the equilibrium dissociation constant (Kd) was found to be 11 ± 5.5 nM.

Molecule B28 registered a Kd of 28.3 ± 6.35 nM.

Consider B29, for which the Kd was around 84 nM.

In turn, B30 showed a dissociation constant Kd of around 13.5 nM.

Molecule B31 yielded a Kd of 23.5 ± 10 nM.

B32: the Kd was 25 ± 7.05 nM.

B33 had a Kd of 15.5 ± 4.5 nM.

For the origin of these results see publication PMC10786891, “Massively parallel profiling of RNA-targeting CRISPR-Cas13d”.
